# Test results as given in the Human Domainome abundance scans (Beltran et al. 2025).
# ± gives the uncertainty stated by the source.
# B1: E3 ubiquitin-protein ligase TRIM36, residues 208 to 252; numbered along this chain, Q9NQ86 (parent)
# chain: KILMCPEHETERINMYCELCRRPVCHLCKLGGNHANHRVTTMSSA
# Variants of: B1
# Experiment: abundance fitness (aPCA) (normalised: wild type 0, dead -1); higher = more abundant; growth selection in yeast, the domain comes from the species named
# Conditions: Homo sapiens
row,Variant,abundance fitness
1,KILMCPEHETERINMYCELCRRPVCHLCKLGGWHANHRVTTMSSA [N33W],-0.178 ± 0.062
2,KILMCPEHETERINMYCELCRRPVCHLCKLGGEHANHRVTTMSSA [N33E],-0.003 ± 0.072
3,KILMCPEHETERINMYCELCRRPVCHLCKLGGAHANHRVTTMSSA [N33A],0.071 ± 0.056
4,KILMCPEHETERINMYCELCRRPVCHLCKLGGPHANHRVTTMSSA [N33P],0.092 ± 0.057
5,KILMCPEHETERINMYCELCRRPVCHLCKLGGQHANHRVTTMSSA [N33Q],0.073 ± 0.06
6,KILMCPEHETERINMYCELCRRPVCHLCKLGGKHANHRVTTMSSA [N33K],0.016 ± 0.061
7,KILMCPEHETERINMYCELCRRPVCHLCKLGGRHANHRVTTMSSA [N33R],-0.066 ± 0.052
8,KILMCPEHETERINMYCELCRRPVCHLCKLGGVHANHRVTTMSSA [N33V],0.039 ± 0.055
9,KILMCPEHETERINMYCELCRRPVCHLCKLGGTHANHRVTTMSSA [N33T],0.044 ± 0.052
10,KILMCPEHETERINMYCELCRRPVCHLCKLGGMHANHRVTTMSSA [N33M],-0.015 ± 0.064
11,KILMCPEHETERINMYCELCRRPVCHLCKLGGFHANHRVTTMSSA [N33F],-0.125 ± 0.092
12,KILMCPEHETERINMYCELCRRPVCHLCKLGGSHANHRVTTMSSA [N33S],0.036 ± 0.048
13,KILMCPEHETERINMYCELCRRPVCHLCKLGGYHANHRVTTMSSA [N33Y],-0.153 ± 0.066
14,KILMCPEHETERINMYCELCRRPVCHLCKLGGLHANHRVTTMSSA [N33L],-0.028 ± 0.048
15,KILMCPEHETERINMYCELCRRPVCHLCKLGGDHANHRVTTMSSA [N33D],0.007 ± 0.062
16,KILMCPEHETERINMYCELCRRPVCHLCKLGGHHANHRVTTMSSA [N33H],-0.046 ± 0.071
17,KILMCPEHETERINMYCELCRRPVCHLCKLGGIHANHRVTTMSSA [N33I],-0.064 ± 0.072
18,KILMCPEHETERINMYCELCRRPVCHLCKLGGGHANHRVTTMSSA [N33G],0.028 ± 0.046
19,KILMCPEHETERINMYCELCRRPVCHLCKLGPNHANHRVTTMSSA [G32P],-0.015 ± 0.054

row,Variant,abundance fitness
1,KILMCPEHETERINMYCELCRRPVCHLCKLGSNHANHRVTTMSSA [G32S],-0.045 ± 0.05
2,KILMCPEHETERINMYCELCRRPVCHLCKLGWNHANHRVTTMSSA [G32W],-0.297 ± 0.058
3,KILMCPEHETERINMYCELCRRPVCHLCKLGHNHANHRVTTMSSA [G32H],-0.267 ± 0.11
4,KILMCPEHETERINMYCELCRRPVCHLCKLGNNHANHRVTTMSSA [G32N],-0.228 ± 0.08
5,KILMCPEHETERINMYCELCRRPVCHLCKLGVNHANHRVTTMSSA [G32V],-0.163 ± 0.064
6,KILMCPEHETERINMYCELCRRPVCHLCKLGCNHANHRVTTMSSA [G32C],-0.132 ± 0.06
7,KILMCPEHETERINMYCELCRRPVCHLCKLGKNHANHRVTTMSSA [G32K],-0.129 ± 0.084
8,KILMCPEHETERINMYCELCRRPVCHLCKLGFNHANHRVTTMSSA [G32F],-0.243 ± 0.12
9,KILMCPEHETERINMYCELCRRPVCHLCKLGTNHANHRVTTMSSA [G32T],-0.07 ± 0.056
10,KILMCPEHETERINMYCELCRRPVCHLCKLGDNHANHRVTTMSSA [G32D],-0.003 ± 0.067
11,KILMCPEHETERINMYCELCRRPVCHLCKLGLNHANHRVTTMSSA [G32L],-0.144 ± 0.052
12,KILMCPEHETERINMYCELCRRPVCHLCKLGANHANHRVTTMSSA [G32A],0.028 ± 0.053
13,KILMCPEHETERINMYCELCRRPVCHLCKLGRNHANHRVTTMSSA [G32R],-0.138 ± 0.049
14,KILMCPEHETERINMYCELCRRPVCHLCKLGQNHANHRVTTMSSA [G32Q],-0.036 ± 0.061
15,KILMCPEHETERINMYCELCRRPVCHLCKLGENHANHRVTTMSSA [G32E],0.089 ± 0.052
16,KILMCPEHETERINMYCELCRRPVCHLCKLGINHANHRVTTMSSA [G32I],-0.276 ± 0.1
17,KILMCPEHETERINMYCELCRRPVCHLCKLGGNRANHRVTTMSSA [H34R],-0.541 ± 0.048
18,KILMCPEHETERINMYCELCRRPVCHLCKLGGNGANHRVTTMSSA [H34G],-0.288 ± 0.049
19,KILMCPEHETERINMYCELCRRPVCHLCKLGGNFANHRVTTMSSA [H34F],-0.614 ± 0.19

row,Variant,abundance fitness
1,KILMCPEHETERINMYCELCRRPVCHLCKLGGNDANHRVTTMSSA [H34D],-0.326 ± 0.066
2,KILMCPEHETERINMYCELCRRPVCHLCKLGGNCANHRVTTMSSA [H34C],0.033 ± 0.06
3,KILMCPEHETERINMYCELCRRPVCHLCKLGGNKANHRVTTMSSA [H34K],-0.485 ± 0.059
4,KILMCPEHETERINMYCELCRRPVCHLCKLGGNNANHRVTTMSSA [H34N],-0.46 ± 0.084
5,KILMCPEHETERINMYCELCRRPVCHLCKLGGNIANHRVTTMSSA [H34I],-0.738 ± 0.15
6,KILMCPEHETERINMYCELCRRPVCHLCKLGGNAANHRVTTMSSA [H34A],-0.334 ± 0.05
7,KILMCPEHETERINMYCELCRRPVCHLCKLGGNEANHRVTTMSSA [H34E],-0.272 ± 0.055
8,KILMCPEHETERINMYCELCRRPVCHLCKLGGNMANHRVTTMSSA [H34M],-0.431 ± 0.059
9,KILMCPEHETERINMYCELCRRPVCHLCKLGGNPANHRVTTMSSA [H34P],-0.391 ± 0.078
10,KILMCPEHETERINMYCELCRRPVCHLCKLPGNHANHRVTTMSSA [G31P],-0.285 ± 0.051
11,KILMCPEHETERINMYCELCRRPVCHLCKLRGNHANHRVTTMSSA [G31R],-0.048 ± 0.048
12,KILMCPEHETERINMYCELCRRPVCHLCKLNGNHANHRVTTMSSA [G31N],-0.058 ± 0.078
13,KILMCPEHETERINMYCELCRRPVCHLCKLKGNHANHRVTTMSSA [G31K],-0.091 ± 0.083
14,KILMCPEHETERINMYCELCRRPVCHLCKLWGNHANHRVTTMSSA [G31W],-0.438 ± 0.057
15,KILMCPEHETERINMYCELCRRPVCHLCKLLGNHANHRVTTMSSA [G31L],-0.259 ± 0.049
16,KILMCPEHETERINMYCELCRRPVCHLCKLQGNHANHRVTTMSSA [G31Q],-0.019 ± 0.056
17,KILMCPEHETERINMYCELCRRPVCHLCKLSGNHANHRVTTMSSA [G31S],-0.007 ± 0.053
18,KILMCPEHETERINMYCELCRRPVCHLCKLTGNHANHRVTTMSSA [G31T],0 ± 0.055
19,KILMCPEHETERINMYCELCRRPVCHLCKLYGNHANHRVTTMSSA [G31Y],-0.176 ± 0.058
